These results are taken from US20180327500A1.

For test [1], the target named is human MET Fc fusion protein (R&D Systems) (human) (UniProt P08581). The test can be described thus: BLI; MET-Fc saturated with antibody at 80 ug/ml (533 nM), then HGF as competitor at 20 ug/ml. A general note: Biolayer interferometry detects binding as a change in optical thickness at a sensor tip.
In test [2] the target is human MET ECD construct with AA 129-143 exchanged to mouse sequence, on HEK293 cells (human). The test can be described thus: flow cytometry on transfected HEK293 cells, normalised to 5D5 binding at 3 ug/ml.
Test [3] addresses human MET ECD construct with H209 mutated to mouse sequence, on HEK293 cells (human) (UniProt P08581). The test is described as above.

B1: 223C4 antibody analog (antibody, from another filing, IgG1, V domains shown)
VH: EVLLQQSGPELVKPGASVKIPCKASGYTFTDYNMDWVKQSHGMSLEWIGDINPNNGGTIFNQKFKGKATLTVDKSSSTAYMELRSLTSEDTAVYYCARGRYVGYYYAMDYWGQGTSVTVSS
VL: DIQMTQSPASLSVSVGETVTITCRASENIYSNLAWYQQKQGKSPQLLVYAATNLVDGVPSRFSGSGSGTQYSLKINSLQSEDFGSYYCQHFWGPPYTFGGGTKLEIK
B1 had a % HGF binding inhibition in test [1] of 69%.

B2: 28-MET antibody analog (antibody, from another filing, IgG1, V domains shown)
VH: QVQLQESGPGLVKPGETLSLTCTVSGGSISGYYWSWIRQAPGKGLEWIGEIYYAGSTLYNPSLKGRVTISVDTSKNQFSLKLSSVTAEDTAVYYCARHYGLDWFGDTGMDVWGQGTLVTVSS
VL: DIELTQPPSVSVAPGQSITISCSGDNLGDKYVHWYQQKPGQAPVLVIYDDNERPSGIPERFSGSNSGNTATLTISGTQAEDEADYYCSAYGSHSGTVFGGGTKLTVLG
On to B2, for which the % HGF binding inhibition in test [1] came to 50%.

B3: 36C4 antibody analog (antibody, from another filing, IgG1, V domains shown)
VH: QVQLVESGPGLVKPSQTLSLTCAVSGGSITTNYYYWSWIRQSPGKGLEWMGVIAYDGSTDYSPSLKSRTSISRDTSKNQFSLQLSSVTPEDTAVYYCARDVRVIATGWATANALDAWGQGTLVTVSS
VL: QSVLTQPPSVSGSPGKTVTISCAGTSSDVGYGNYVSWYQQLPGTAPKLLIFAVSYRASGIPDRFSGSKSGNTAFLTISGLQSEDEADYYCASYRSSNNAAVFGGGTHLTVL
With B3, the % HGF binding inhibition in test [1] was 74%. In addition, the % binding compared to 5D5 is 58% in test [2] and 43% in test [3].

B4: 13-MET antibody analog (antibody, from another filing, IgG1, V domains shown)
VH: QVQLKESGPALVKPTQTLTLTCTFSGFSLSTSGMVVSWIRQPPGKALEWLAFISWDDDKYYSTSLKTRLTISKDTSKNQVVLTMTNMDPVDTATYYCAREPGRYGGYYFDYWGQGTLVTVSS
VL: DIQMTQSPSSLSASVGDRVTITCRASQTISHYLAWYQQKPGKAPKLLIYAASILQSGVPSRFSGSGSGTDFTLTISSLQPEDFAVYYCQQYSGFPVTFGQGTKVEIKR
In the case of B4, the % HGF binding inhibition in test [1] was 81%.
